Experiments:
[1] = target: Wild-type F protein from the hMPV strain rC-85473 (human metapneumovirus (hMPV), strain rC-85473) (UniProt Q6WB98); assay: flow cytometry, HMPV24-A647 on LLC-MK2 cells infected with rC-85473
[2] = target: Wild-type F protein from the hMPV strain rC-85473 (human metapneumovirus (hMPV), strain rC-85473) (UniProt Q6WB98); assay: flow cytometry, HMPV24-A647 on LLC-MK2 cells infected with Bivalent Metavac®-RSV v.1
[3] = target: Wild-type F protein from the hMPV strain rC-85473 (human metapneumovirus (hMPV), strain rC-85473) (UniProt Q6WB98); assay: flow cytometry, HMPV24-A647 on LLC-MK2 cells infected with Bivalent Metavac®-RSV v.2
[4] = target: Wild-type F protein from the hMPV strain rC-85473 (human metapneumovirus (hMPV), strain rC-85473) (UniProt Q6WB98); assay: flow cytometry, HMPV24-A647 on LLC-MK2 cells infected with Bivalent Metavac®-RSV v.3
[5] = target: F RSV v.3, chimeric HMPV/RSV stabilized F pre-fusion form (mutated extracellular domain of F protein from hRSV with transmembrane and cytoplasmic domains of F protein from hMPV C-85473) (chimera of hRSV (RSV A2 strain, mutated) and hMPV (C-85473)); assay: flow cytometry, Palivizumab-PE on LLC-MK2 cells infected with Bivalent Metavac®-RSV v.3
[6] = target: F RSV v.2, mutated F protein from hRSV corresponding to the stabilized prefusion state (human respiratory syncytial virus (hRSV), RSV A2 strain, mutated) (UniProt P03420); assay: flow cytometry, Palivizumab-PE on LLC-MK2 cells infected with Bivalent Metavac®-RSV v.2
[7] = target: F RSV v.1, native (wild-type) F protein of hRSV, RSV A2 strain (human respiratory syncytial virus (hRSV), RSV A2 strain) (UniProt P03420); assay: flow cytometry, Palivizumab-PE on LLC-MK2 cells infected with Bivalent Metavac®-RSV v.1

## Monoclonal mouse antibody detecting the F HMPV protein (MAb HMPV24 BioRad MCA 4674)
[1]
  Infected cells expressing HMPV-F [%, GFP and A647 positive cells]: 98.9%
[2]
  Infected cells expressing HMPV-F [%, GFP and A647 positive cells]: 94.8%
[3]
  Infected cells expressing HMPV-F [%, GFP and A647 positive cells]: 94.8%
[4]
  Infected cells expressing HMPV-F [%, GFP and A647 positive cells]: 85.2%

## Palivizumab Synagis® AstraZeneca, monoclonal humanized antibody detecting both pre-fusion and post-fusion forms of the F RSV protein
[5]
  Infected cells expressing RSV-F [%, GFP and PE positive cells]: 47.2%
[6]
  Infected cells expressing RSV-F [%, GFP and PE positive cells]: 54.6%
[7]
  Infected cells expressing RSV-F [%, GFP and PE positive cells]: 65.5%
